Reference: patent US20220177587A1, “METHODS AND USES OF VARIANT CD80 FUSION PROTEINS AND RELATED CONSTRUCTS” (Alpine Immune Sciences, Inc., priority 2018, published 2022)
Read-outs that look alike come from different tables or passages of the source.

How the values were obtained:
CD28 (human) [1] = biological target: CD28 (human) (UniProt P10747)
human PD-L1 (human) [2] = biological target: human PD-L1 (human) (UniProt Q9NZQ7)
Target sequence in this assay (Q9NZQ7 19-290): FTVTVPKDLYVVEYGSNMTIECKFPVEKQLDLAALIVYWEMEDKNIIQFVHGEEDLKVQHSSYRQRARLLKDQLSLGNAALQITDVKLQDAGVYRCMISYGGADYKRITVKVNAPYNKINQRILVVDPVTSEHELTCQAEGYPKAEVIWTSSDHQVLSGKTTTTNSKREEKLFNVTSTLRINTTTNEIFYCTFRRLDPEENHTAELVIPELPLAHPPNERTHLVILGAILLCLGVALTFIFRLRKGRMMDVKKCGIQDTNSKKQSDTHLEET

CD28 (human) [3] = biological target: CD28 (human) (UniProt P10747); test: flow cytometry, Jurkat cells (CD28)
human CTLA-4 (human) = human CTLA-4 (human) (UniProt P16410); test: flow cytometry, CHO cells stably expressing CTLA4
Chain of human CTLA-4 (human) (P16410 36-223): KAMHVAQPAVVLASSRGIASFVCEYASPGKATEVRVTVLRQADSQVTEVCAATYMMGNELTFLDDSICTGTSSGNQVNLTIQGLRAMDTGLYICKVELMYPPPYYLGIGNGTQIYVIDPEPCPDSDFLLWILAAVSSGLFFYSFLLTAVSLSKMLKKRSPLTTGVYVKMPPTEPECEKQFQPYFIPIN

human PD-L1 (human) [4] = biological target: human PD-L1 (human) (UniProt Q9NZQ7); test: flow cytometry, CHO cells stably expressing PD-L1
Target sequence in this assay (Q9NZQ7 19-290): as the sequence (Q9NZQ7 19-290) above

human PD-L1 (human) [5] = biological target: human PD-L1 (human) (UniProt Q9NZQ7); test: flow cytometry, MFI on CHO/PD-L1 over MFI on Jurkat (CD28)
Target sequence in this assay (Q9NZQ7 19-290): as above

CD28 (human) [6] = biological target: CD28 (human) (UniProt P10747); remark: listed apart in the source
CD28 (human) [7] = biological target: CD28 (human) (UniProt P10747); remark: listed apart in the source
human PD-L1 (human) [8] = biological target: human PD-L1 (human) (UniProt Q9NZQ7); remark: listed apart in the source
Target sequence in this assay (Q9NZQ7 19-290): as above

CD28 (human) [9] = biological target: CD28 (human) (UniProt P10747); remark: listed apart in the source
human PD-L1 (human) [10] = biological target: human PD-L1 (human) (UniProt Q9NZQ7); remark: listed apart in the source
Target sequence in this assay (Q9NZQ7 19-290): as above

CD28 (human) [11] = biological target: CD28 (human) (UniProt P10747); remark: listed apart in the source
human PD-L1 (human) [12] = biological target: human PD-L1 (human) (UniProt Q9NZQ7); remark: listed apart in the source
Target sequence in this assay (Q9NZQ7 19-290 limits assumed): as the sequence (Q9NZQ7 19-290) above

human PD-L1 (human) [13] = biological target: human PD-L1 (human) (UniProt Q9NZQ7); test: flow cytometry, MFI on PD-L1 cells over MFI on CD28 cells
Target sequence in this assay (Q9NZQ7 19-290): as above

Row | MFI at 33.3 nM (CD28 (human) [3]) [MFI] | Fold change to WT CD80 (human CTLA-4 (human)) [fold] | MFI at 33.3 nM (human CTLA-4 (human)) [MFI] | MFI at 33.3 nM (human PD-L1 (human) [4]) [MFI] | RLU at 5.0 nM: Fold Increase over WT CD80-IgV-Fc (CD28 (human) [7]) [fold] | RLU at 5.0 nM: Fold Increase over WT CD80-IgV-Fc (human PD-L1 (human) [8]) [fold] | Fold change to WT CD80 (CD28 (human) [3]) [fold] | Fold change to WT CD80 (human PD-L1 (human) [4]) [fold] | Binder | also measured
1 | 1400 | 10.1 | 10300 | 16800 | – | – | – | – | CD80 IgV-Fc E35D/M47L/V68M/A71G/L85Q/D90G (Fc fusion) VIHVTKEVKEVATLSCGHNVSVEELAQTRIYWQKDKKMVLTMMSGDLNIWPEYKNRTIFDITNNLSIMILGLRPSDEGTYECVVQKYEKGAFKREHLAEVTLSVKAD | RLU at 5.0 nM: Fold Increase over WT CD80-IgV-Fc (CD28 (human) [1]): 2.3 fold; RLU at 5.0 nM: Fold Increase over WT CD80-IgV-Fc (human PD-L1 (human) [2]): 2.3 fold; Fold change to WT (CD28 (human) [3]): 33.9 fold; Fold change to WT (human PD-L1 (human) [4]): 202 fold; Ratio of PDL1:CD28 (human PD-L1 (human) [5]): 12
2 | – | – | – | – | – | – | – | – | variant CD80 IgV-Fc V20I/M47V/T57I/V84I (Fc fusion) VIHVTKEVKEVATLSCGHNISVEELAQTRIYWQKEKKMVLTMMSGDVNIWPEYKNRIIFDITNNLSIVILALRPSDEGTYECVILKYEKDAFKREHLAEVTLSVKAD | Fold increase in IL2 reporter signal (Jurkat/IL2 reporter assay) (fold vs WT CD80 IgV-Fc) (CD28 (human) [6]): 0.45
3 | 1390 | 18.5 | 19300 | 3090 | 2.5 | 2.5 | 33.7 | 43.6 | CD80 IgV-Fc H18Y/E35D/M47V/V68M/L85M (Fc fusion) VIHVTKEVKEVATLSCGYNVSVEELAQTRIYWQKDKKMVLTMMSGDVNIWPEYKNRTIFDITNNLSIMILALRPSDEGTYECVVMKYEKDAFKREHLAEVTLSVKAD | RLU at 5.0 nM: Fold Increase over WT CD80-IgV-Fc (CD28 (human) [9]): 6.4 fold; RLU at 5.0 nM: Fold Increase over WT CD80-IgV-Fc (human PD-L1 (human) [10]): 6.4 fold; Ratio of PDL1:CD28 (human PD-L1 (human) [5]): 2.2
4 | 1310 | 19 | 25900 | 8520 | – | – | 29.8 | 196 | variant CD80 IgV-Fc H18Y/E35D/A71G/D90G (Fc fusion) VIHVTKEVKEVATLSCGYNVSVEELAQTRIYWQKDKKMVLTMMSGDMNIWPEYKNRTIFDITNNLSIVILGLRPSDEGTYECVVLKYEKGAFKREHLAEVTLSVKAD | IL-2 luciferase reporter, fold increase over WT CD80-IgV-Fc at 5.0 nM (CD28 (human) [11]): 3.81 fold; IL-2 luciferase reporter, fold increase over WT CD80-IgV-Fc at 5.0 nM (human PD-L1 (human) [12]): 3.81 fold; Ratio of PDL1:CD28 (human PD-L1 (human) [13]): 6.5
5 | – | – | – | – | 2.5 | 2.5 | – | – | CD80 IgV-Fc T13R/Q33R/E35D/M38I/M47L/V68M/E95V/L97Q (Fc fusion) VIHVTKEVKEVARLSCGHNVSVEELAQTRIYWRKDKKIVLTMMSGDLNIWPEYKNRTIFDITNNLSIMILALRPSDEGTYECVVLKYEKDAFKRVHQAEVTLSVKAD | –
6 | 324 | 17.7 | 24000 | 9950 | – | – | 7.4 | 228 | variant CD80 IgV-Fc H18Y/A26E/E35D/M47L (Fc fusion) VIHVTKEVKEVATLSCGYNVSVEELEQTRIYWQKDKKMVLTMMSGDLNIWPEYKNRTIFDITNNLSIVILALRPSDEGTYECVVLKYEKDAFKREHLAEVTLSVKAD | IL-2 luciferase reporter, fold increase over WT CD80-IgV-Fc at 5.0 nM (CD28 (human) [11]): 3.1 fold; IL-2 luciferase reporter, fold increase over WT CD80-IgV-Fc at 5.0 nM (human PD-L1 (human) [12]): 3.1 fold; Ratio of PDL1:CD28 (human PD-L1 (human) [13]): 30.7
7 | – | – | – | – | 3.6 | 3.6 | – | – | CD80 IgV-Fc E35D/M47V/N48K/V68M/A71G/L85M (Fc fusion) VIHVTKEVKEVATLSCGHNVSVEELAQTRIYWQKDKKMVLTMMSGDVKIWPEYKNRTIFDITNNLSIMILGLRPSDEGTYECVVMKYEKDAFKREHLAEVTLSVKAD | –
